This series relates to T1, IFI16 (Homo sapiens), Q16666-2.
T1 sequence: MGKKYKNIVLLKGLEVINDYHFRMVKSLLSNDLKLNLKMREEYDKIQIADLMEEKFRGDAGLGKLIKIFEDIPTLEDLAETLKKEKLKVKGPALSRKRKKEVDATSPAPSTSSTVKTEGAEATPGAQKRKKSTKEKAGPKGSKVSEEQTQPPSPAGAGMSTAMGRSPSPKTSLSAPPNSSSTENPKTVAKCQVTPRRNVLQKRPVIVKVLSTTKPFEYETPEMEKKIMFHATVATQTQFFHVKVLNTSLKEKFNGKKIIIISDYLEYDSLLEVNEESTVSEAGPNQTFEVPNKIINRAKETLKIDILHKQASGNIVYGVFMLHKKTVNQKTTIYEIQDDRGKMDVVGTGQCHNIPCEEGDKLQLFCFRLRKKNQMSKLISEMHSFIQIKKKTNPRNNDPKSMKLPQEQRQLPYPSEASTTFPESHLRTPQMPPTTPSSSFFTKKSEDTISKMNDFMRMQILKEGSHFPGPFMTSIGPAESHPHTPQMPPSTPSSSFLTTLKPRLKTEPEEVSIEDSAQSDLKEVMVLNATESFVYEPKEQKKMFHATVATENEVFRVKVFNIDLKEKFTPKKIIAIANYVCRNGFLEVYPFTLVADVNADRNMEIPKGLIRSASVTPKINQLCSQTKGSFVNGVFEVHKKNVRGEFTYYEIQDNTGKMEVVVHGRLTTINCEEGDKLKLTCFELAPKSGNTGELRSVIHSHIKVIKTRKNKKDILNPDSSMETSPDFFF
The series can be described thus: EMSA. Particulars: EMSA: 5 mM Tris-HCl pH 7.0, 1 mM EDTA, 50 mM KCl, 0.01% Triton X-100, 4 C, 15 min; gel 0.33x TBE (native PAGE with 50 mM KCl). A general note: A gel shift assay detects complexes by their altered migration in electrophoresis.

The values below come from PMC4900677.

Sequence “GGGTTAGGGTTAGGGTTAGGGTTAGGGTTAGGGTTAGGGTTAGGGTTAGGG (double strand) [DS HTEL]” showed a binding signal (% bound at protein:DNA 4:1) of 50. To “TTGGGGCGCTTATGGGGAGGGTGGGGAGGGTGGGGAAGGTGGGGAGGAGACT (double strand) [DS NHEIII]” belongs 50.
